Laboratory results taken from patent US7407655.

Biological target: human CXC Chemokine Receptor 3 (CXCR3) (human) (UniProt P49682)
Experiment: cell-based or functional assay

human CXC Chemokine Receptor 3 (CXCR3) (human), sequence (P49682 whole entry): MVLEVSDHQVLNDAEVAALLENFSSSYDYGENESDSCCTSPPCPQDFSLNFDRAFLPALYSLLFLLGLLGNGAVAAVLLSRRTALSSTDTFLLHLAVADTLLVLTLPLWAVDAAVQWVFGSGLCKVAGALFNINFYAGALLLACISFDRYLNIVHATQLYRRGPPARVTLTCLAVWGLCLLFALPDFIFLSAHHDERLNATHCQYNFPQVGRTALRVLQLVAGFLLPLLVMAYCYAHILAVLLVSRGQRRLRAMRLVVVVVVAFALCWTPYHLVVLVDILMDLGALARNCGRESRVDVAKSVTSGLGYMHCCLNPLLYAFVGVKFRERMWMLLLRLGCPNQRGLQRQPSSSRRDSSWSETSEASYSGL
GCP-2, sequence (P80162 38-114 limits assumed): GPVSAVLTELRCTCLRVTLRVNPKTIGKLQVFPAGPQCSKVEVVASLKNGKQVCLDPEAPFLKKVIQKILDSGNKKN
RANTES, sequence (P13501 24-91): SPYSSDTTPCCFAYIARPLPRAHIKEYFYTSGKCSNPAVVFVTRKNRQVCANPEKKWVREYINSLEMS
MIP-1β, sequence (P13236 24-92 limits assumed): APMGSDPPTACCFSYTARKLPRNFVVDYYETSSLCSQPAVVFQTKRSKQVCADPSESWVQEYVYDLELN
GROα, sequence (P09341 35-107 limits assumed): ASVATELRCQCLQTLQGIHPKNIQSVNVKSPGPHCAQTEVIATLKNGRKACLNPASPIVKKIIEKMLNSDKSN
ENA78, sequence (P42830 37-114 limits assumed): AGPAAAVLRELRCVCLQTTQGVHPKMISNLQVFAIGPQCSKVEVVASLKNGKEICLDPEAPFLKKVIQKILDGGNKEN
MCP-2, sequence (P80075 24-99 limits assumed): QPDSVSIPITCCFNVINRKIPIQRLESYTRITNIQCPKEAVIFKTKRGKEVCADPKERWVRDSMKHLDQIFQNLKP
IL-8, sequence (P10145 28-99 limits assumed): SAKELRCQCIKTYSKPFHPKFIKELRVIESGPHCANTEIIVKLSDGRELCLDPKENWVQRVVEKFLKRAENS
MIP-1α, sequence (P10147 24-92 limits assumed): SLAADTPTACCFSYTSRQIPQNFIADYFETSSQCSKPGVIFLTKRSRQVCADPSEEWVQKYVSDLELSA

Molecule | [Ca^2+]i changes in IP-10/MigR transfectants
GCP-2 (from UniProt P80162 38-114) (ligand) | > 100 nM
IL-8 (from UniProt P10145 28-99) (ligand) | > 100 nM
MCP-2 (from UniProt P80075 24-99) (ligand) | > 100 nM
MIP-1α (from UniProt P10147 24-92) (ligand) | > 100 nM
MIP-1β (from UniProt P13236 24-92) (ligand) | > 100 nM
lymphotactin (from UniProt P47992 22-114) (ligand) | > 100 nM
PF4 (ligand, human, UniProt P02776 32-101, looked up) EAEEDGDLQCLCVKTTSQVRPRHITSLEVIKAGPHCPTAQLIATLKNGRKICLDLQAPLYKKIIKKLLES | > 100 nM

Now from value to molecule:

[Ca^2+]i changes in IP-10/MigR transfectants | Molecule
> 100 nM | ENA78 (from UniProt P42830 37-114) (ligand)
> 100 nM | GROα (from UniProt P09341 35-107) (ligand)
> 100 nM | MCP-1 (from UniProt P13500 24-99) (ligand)
> 100 nM | MCP-3 (from UniProt P80098 24-99) (ligand)
> 100 nM | MCP-4 (from UniProt Q99616 24-98) (ligand)
> 100 nM | RANTES (from UniProt P13501 24-91) (ligand)
> 100 nM | eotaxin (from UniProt P51671 24-97) (ligand)
> 100 nM | NAP-2 (ligand, human, UniProt P02775 59-128, looked up) AELRCMCIKTTSGIHPKNIQSLEVIGKGTHCNQVEVIATLKDGRKICLDPDAPRIKKIVQKKLAGDESAD
> 100 nM | I309 (ligand, human, UniProt P22362 24-96, looked up) KSMQVPFSRCCFSFAEQEIPLRAILCYRNTSSICSNEGLIFKLKRGKEACALDTVGWVQRHRKMLRHCPSKRK
